The RNAGym collection of RNA variant scans (doi:10.7554/elife.90254)

B1: LINE1-full (parent)
chain: UACGUAGGUGGUUUUCCCCUGAUAGUGCUAAGGGGGCCUGGAAGUUUGGACUGGGCAGAGCUCAACACAGCGUGGCAAAGUGGCUGUGGCUAGACUGCCUCUCUGGAUUCCUCGUCACUCAGCAGGGCAUCUCUGAGAGAAAUGCC

Variants of: B1
Test: self-cleavage, relative activity (ratio to wild type); higher = more cleavage; in vitro, sequencing; the parent is a self-cleaving ribozyme

Variant	self-cleavage
UACGUAGGUGGUUAUCCCCUGAUAGUGCUAAGGGGGCCUGGAAGUUUGGAUUGGGCAGAGCUCAACACAGCGUGGCAAAGUGGCUGUGGCUAGACUGCCUCUCUGGAUUCCUCGUCACUCAGCAGGGCAUCUCUGAGAGAAAUGCC [U14A C51U]	0.97
UACGUAGGUGGUUAUCCCCUGAUAGUGCUAAGGGGGCCUGGAAGUUUGGACUGGGCAGAGCUCAACACAGCGUGGCAAAGUGGCUGUGGUUAGACUGCCUCUCUGGAUUCCUCGUCACUCAGCAGGGCAUCUCUGAGAGAAAUGCC [U14A C90U]	0.04
UACGUAGGUGGUUAUCCCCUGAUAGUGCUAAGGGGGCCUGGAAGUUUGGACUGGGCAGAGCUCAACACAGCGUGGCAAAGUGGCUGUGGCUAGACUGCCUCUCUGGGUUCCUCGUCACUCAGCAGGGCAUCUCUGAGAGAAAUGCC [U14A A107G]	1.1
UACGUAGGUGGUUAUCCCCUGAUAGUGCUAAGGGGGCCUGGAAGUUUGGACUGGGCAGAGCUCAACACUGCGUGGCAAAGUGGCUGUGGCUAGACUGCCUCUCUGGAUUCCUCGUCACUCAGCAGGGCAUCUCUGAGAGAAAUGCC [U14A A69U]	0.06
UACGUAGGUGGUUAUCCCCUGAUAGUGCUAAGGGGGCCUGGAAGUUUGGACUGGGCAGAGCUCAACACGGCGUGGCAAAGUGGCUGUGGCUAGACUGCCUCUCUGGAUUCCUCGUCACUCAGCAGGGCAUCUCUGAGAGAAAUGCC [U14A A69G]	2.24
UACGUAGGUGGUUAUCCCCUGAUAGUGCUAAGGGGGCCUGGAAGUUUGGACUGGGCAGAGCUCAGCACAGCGUGGCAAAGUGGCUGUGGCUAGACUGCCUCUCUGGAUUCCUCGUCACUCAGCAGGGCAUCUCUGAGAGAAAUGCC [U14A A65G]	0.06
UACGUAGGUGGUUAUCCCCUGAUAGUGCUAAGGGGGCCUGGAAGUUUGGACUGGGCAGAGCUCAACACAGCGUGGCAAAGUGGCUGUGGCUAGACUGCCUCUCUGGAUUCCUCGUCACUCAGCGGGGCAUCUCUGAGAGAAAUGCC [U14A A124G]	0.62
UACGUAGGUGGUUAUCCCCUGAUAGUGCUAAGGGGGCCUGGAAGUUUGGACUGGGCAGAGCUCAACACAGCGUGGCAAAGUGGCUGUGGCUAGACUGCCUCUCUGGAUUCCUCGUCACUCAGCUGGGCAUCUCUGAGAGAAAUGCC [U14A A124U]	1.67
UACGUAGGUGGUUAUCCCCUGAUAGUGCUAAGGGGGCCUGGAAGUUUGGACUGGGCAGAGCUCGACACAGCGUGGCAAAGUGGCUGUGGCUAGACUGCCUCUCUGGAUUCCUCGUCACUCAGCAGGGCAUCUCUGAGAGAAAUGCC [U14A A64G]	0.21
UACGUAGGUGGUUAUCCCCUGAUAGUGCUAAGGGGGCCUGGAAGUUUGGACUGGGCAGAGCUCUACACAGCGUGGCAAAGUGGCUGUGGCUAGACUGCCUCUCUGGAUUCCUCGUCACUCAGCAGGGCAUCUCUGAGAGAAAUGCC [U14A A64U]	0.48
UACGUAGGUGGUUAUCCCCUGAUAGUGCUAAGGGGGCCUGGAAGUUUGGACUGGGCAGGGCUCAACACAGCGUGGCAAAGUGGCUGUGGCUAGACUGCCUCUCUGGAUUCCUCGUCACUCAGCAGGGCAUCUCUGAGAGAAAUGCC [U14A A59G]	0.14
UACGUAGGUGGUUAUCCCCUGAUAGUGCUAAGGGGGCCUGGAAGUUUGGACUGGGCAGAGCUCAACACAGCGUGGCAAAGUGGCUGUGGCUAGACUGCCUCUCUGGAUUCCUCGUCACUCCGCAGGGCAUCUCUGAGAGAAAUGCC [U14A A121C]	1.07
UACGUAGGUGGUUAUCCCCUGAUAGUGCUAAGGGGGCCUGGAAGUUUGGACUGGGCAGAGCUCAACACAGCGUGGCAAAGUGGCUGUGGCUAGACUGCCUCUCUGGAUUCCUCGUCACUCGGCAGGGCAUCUCUGAGAGAAAUGCC [U14A A121G]	0.94
UACGUAGGUGGUUAUCCCCUGAUAGUGCUAAGGGGGCCUGGAAGUUUGGACUGGGCAGAGCUUAACACAGCGUGGCAAAGUGGCUGUGGCUAGACUGCCUCUCUGGAUUCCUCGUCACUCAGCAGGGCAUCUCUGAGAGAAAUGCC [U14A C63U]	0.09
UACGUAGGUGGUUAUCCCCUGAUAGUGCUAAGGGGGCCUGGAAGUUUGGACUGGGCAGAGCUCAACACAGCGUGGCAAAGUGGCUGUGGCUAGACUGCCUCUCUGGAUUCCUCGUCACUCAGCAGGGCAUCUCUGUGAGAAAUGCC [U14A A136U]	1.19
UACGUAGGUGGUUAUCCCCUGAUAGUGCUAAGGGGGCCUGGAAGUUUGGACUGGGCAGAGCUCAACACAGCGUGGCAAAGUGGCUGUGGCUAGACUGCCUCUCUGGAUUCCUCGUCACUCAGCAGGGCAUCUCUGAGUGAAAUGCC [U14A A138U]	1.07
UACGUAGGUGGUUAUCCCCUGAUAGUGCUAAGGGGGCCUGGAAGUUUGGACUGGGCAGAGCUCAACACAGCGUGGCCAAGUGGCUGUGGCUAGACUGCCUCUCUGGAUUCCUCGUCACUCAGCAGGGCAUCUCUGAGAGAAAUGCC [U14A A77C]	0.88
UACGUAGGUGGUUAUCCCCUGAUAGUGCUAAGGGGGCCUGGAAGUUUGGACUGGGCAGAGCUCAACGCAGCGUGGCAAAGUGGCUGUGGCUAGACUGCCUCUCUGGAUUCCUCGUCACUCAGCAGGGCAUCUCUGAGAGAAAUGCC [U14A A67G]	0.59
UACGUAGGUGGUUAUCCCCUGAUAGUGCUAAGGGGGCCUGGAAGUUUGGACUGGGCAGAGCUCAACACAGCGUGGCAAAGUGGCUGUGGCUAGUCUGCCUCUCUGGAUUCCUCGUCACUCAGCAGGGCAUCUCUGAGAGAAAUGCC [U14A A94U]	0.13
UACGUAGGUGGUUAUCCCCUGAUAGUGCUAAGGGGGCCUGGAAGUUUGGACUGGGCAGAGCUCAACACAGCGUGGCAAGGUGGCUGUGGCUAGACUGCCUCUCUGGAUUCCUCGUCACUCAGCAGGGCAUCUCUGAGAGAAAUGCC [U14A A79G]	0.8
